From the supplement of paper PMC7877785
± gives the uncertainty stated by the source.

Experiment: self-splicing fitness, log relative to wild type (ln ratio); higher = more splicing; Tetrahymena group I intron in knt gene, E. coli kanamycin selection, DiMSum; sequences stand for … in CUCUCU…GGAGGGAAAAGUUAUCAGGCAUGCACCUGGUAGCUAGUCUUUAAACCAAUAGAUUGCAUCGGUUUAAAAGGCAAGACCGUCAAAUUGCGGGAAAGGGGUCAACAGCCGUUCAGUACCAAGUCUCAGGGGAAACUUUGAGAUGGCCUUGCAAAGGGUAUGGUAAUAAGCUGACGGACAUGGUCCUAACCACGCAGCCAAGUCCUAAGUCAACAGAUCUUCUGUUGAUAUGGAUGCAGUUCACAGACUAAAUGUCGGUCGGGGAAGAUGUAUUCUUCUCAUAAGAUAUAGUCGGACCUCUCCUUAAUGGGAGCUAGCGGAUGAAGUGAUGCAACACUGGAGCCGCUGGGAACUAAUUUGUAUGCGAAAGUAUAUUGAUUAGUUUUGGAGUACUCGUGGUCG
How it was run: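 Fitness was computed with DiMSum as the error-weighted combination of replicate fold changes, kanamycin versus none, each normalised to wild type. The library randomised all eight intron nucleotides of the P1ex region, with the intron placed in the knt kanamycin-resistance gene on pET-22b(+) in E. coli BL21(DE3). Six replicate transformations were grown overnight at 37°C or 30°C on LB agar with or without 25 μg/mL kanamycin, plus 100 μg/mL carbenicillin, 50 μM IPTG and 0.2% rhamnose. Pooled colonies were amplicon-sequenced on an Illumina HiSeq 2500.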

Sequence | self-splicing fitness (ln) (30 °C) | self-splicing fitness (ln) (37 °C)
CGCCAGCAAUAUUACGAUUA | -2.37 ± 0.15 | -2.68 ± 0.21
UUCAAGCAAUAUUACGAAUC | -4.05 ± 0.3 | -2.75 ± 0.32
GGGGAGCAAUAUUACGCGUA | -1.53 ± 0.38 | -1.13 ± 0.3
GAACAGCAAUAUUACGUCAG | -2.51 ± 0.21 | -3.2 ± 0.36
GCAGAGCAAUAUUACGCAGG | -4.06 ± 0.39 | -2.2 ± 0.22
CACUAGCAAUAUUACGUGCC | -4.04 ± 0.46 | -2.17 ± 0.29
AGAGAGCAAUAUUACGAGAG |  | -2.3 ± 0.44
CUACAGCAAUAUUACGUCUU | -4.14 ± 0.24 | -3.48 ± 0.25
AACGAGCAAUAUUACGCGCU | -3.43 ± 0.2 | -0.902 ± 0.14
AAGUAGCAAUAUUACGUUAG | -3.51 ± 0.23 | -3 ± 0.34
GAGGAGCAAUAUUACGAGUG | -2.88 ± 0.35 | -2.5 ± 0.23
GUUCAGCAAUAUUACGUAGU | -0.247 ± 0.11 | 0.369 ± 0.11
GAAGAGCAAUAUUACGCCCG | -1.59 ± 0.47 | 
UGGAAGCAAUAUUACGUAGG | -1.13 ± 0.067 | -1.05 ± 0.092
AGACAGCAAUAUUACGCCCA | -0.00321 ± 0.2 | 0.432 ± 0.28
AGCCAGCAAUAUUACGAGCG | -1.36 ± 0.095 | -0.0302 ± 0.13
UAGUAGCAAUAUUACGCCGA | -1.81 ± 0.23 | -0.922 ± 0.2
GAUCAGCAAUAUUACGCUUC | -3.16 ± 0.22 | -2.25 ± 0.43
AUCUAGCAAUAUUACGGCAA | -0.584 ± 0.14 | -0.113 ± 0.14
CCUGAGCAAUAUUACGUCAA | -2.73 ± 0.22 | -2.36 ± 0.3
CUACAGCAAUAUUACGAUUG | -0.678 ± 0.055 | -0.0365 ± 0.078
UAUAAGCAAUAUUACGUUGU | -4.3 ± 0.2 | -2.55 ± 0.17
CGUGAGCAAUAUUACGAGGA | -3.04 ± 0.39 | -1.65 ± 0.33
CUCUAGCAAUAUUACGCGAU | -3.29 ± 0.17 | -2.88 ± 0.19
UCUCAGCAAUAUUACGGAGA | -3.23 ± 0.41 | -3.43 ± 0.39
UUCAAGCAAUAUUACGUUCG | -1.96 ± 0.12 | -1.44 ± 0.12
CUUUAGCAAUAUUACGGCUG | -1.48 ± 0.14 | -0.483 ± 0.14
CGGCAGCAAUAUUACGUUUA | -2.06 ± 0.12 | -1.53 ± 0.13
AUUGAGCAAUAUUACGGCAA | -1.58 ± 0.14 | -0.831 ± 0.13
AACGAGCAAUAUUACGUUUU | -3.9 ± 0.14 | -2.79 ± 0.14
